Results on 1 molecule are retold here after patent publication US20060251652A1 (APPLIED MOLECULAR EVOLUTION, published 2006).

For the assay, the target named is T1, human CD20 (human, UniProt P11836 1-297).
T1 construct: whole, on cells; Always presented on cells (fixed Ramos cells in ELISA; live cells in flow cytometry and KinExA-type assays); also called hCD20; Bp35
T1 sequence (looked up): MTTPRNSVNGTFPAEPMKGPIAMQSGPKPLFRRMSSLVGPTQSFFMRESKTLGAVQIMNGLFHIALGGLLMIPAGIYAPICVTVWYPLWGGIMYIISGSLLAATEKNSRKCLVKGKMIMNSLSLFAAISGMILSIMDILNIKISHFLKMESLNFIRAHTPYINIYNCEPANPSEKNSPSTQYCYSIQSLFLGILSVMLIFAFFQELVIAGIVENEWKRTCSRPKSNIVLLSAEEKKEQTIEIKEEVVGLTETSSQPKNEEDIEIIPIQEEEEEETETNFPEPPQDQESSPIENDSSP
Nature of the assay: ELISA on formalin-fixed Ramos cells, off-rate format: after the Fab incubation the plate stood overnight in PBS/BSA before anti-His6 peroxidase, OD 450. The method, then:
Ramos cells (ATCC) were grown in RPMI 1640 containing 10% heat inactivated Fetal Bovine Serum. […] Media was gently aspirated and […] of aqueous buffered zinc formalin (Anatech, Ltd.) was added to each well for 15 minutes at room temperature. Z-fix was removed and the plate was washed with phosphate-buffered saline (PBS) containing 0.05% Tween 20. The plate was blocked for 1 hour with 1% bovine serum albumin (BSA) in PBS. Dilutions of Fab or IgG were incubated with the fixed and blocked Ramos cells for 1 hour at room temperature. The plate was washed 3× with PBS 0.05% Tween […] of anti-His6 Peroxidase Mouse Monoclonal Antibody (Roche Diagnostics Corporation) at a 1:500 dilution were added to the wells and incubated 1 hour at room temperature. The plate was washed as above and developed with tetramethyl benzidine, and the reaction was stopped with 5N H₂SO₄. The plate absorbance was read at OD 450 nm. Dilutions of Fab and conjugate were in 1% BSA/PBS.
IgG assays were performed similarly except IgG bound was detected with goat anti-human IgG-HRP. To compare antibody off-rate, after incubation with Fab or IgG the plates were incubated over night in PBS/BSA, before proceeding with the second antibody step. To compare antibody on-rate, incubation steps for Fab/IgG binding and with the second antibody were both of 5 minutes duration.

B1: AME 33 Fab (Fab, V domains shown)
VH: EVQLVQSGAEVKKPGESLKISCKGSGRTFTSYNMHWVRQMPGKGLEWMGAIYPLTGDTSYNQKSKLQVTISADKSISTAYLQWSSLKASDTAMYYCARSTYVGGDWQFDVWGKGTTVTVSS
VL: EIVLTQSPGTLSLSPGERATLSCRASSSVPYIHWYQQKPGQAPRLLIYATSALASGIPDRFSGSGSGTDFTLTISRLEPEDFAVYYCQQWLSNPPTFGQGTKLEIK
notes: Fab
With B1, the EC50 (read off the curve) (as a rule, the concentration needed to bring the measured effect to its halfway point) was roughly 0.3 µg/mL.
